Patent US20090035818A1

Columns and labels:
[1] = target: chicken egg yolk antibody (chicken IgY antibody) (chicken); assay: SPR (Biacore 2000), chicken IgY on CM5 chip, lectin as analyte
[2] = target: asialotransferrin (human) (UniProt P02787); assay: SPR, asialotransferrin on CM5 chip, lectin as analyte
Chain of asialotransferrin (human) (P02787 20-698 limits assumed): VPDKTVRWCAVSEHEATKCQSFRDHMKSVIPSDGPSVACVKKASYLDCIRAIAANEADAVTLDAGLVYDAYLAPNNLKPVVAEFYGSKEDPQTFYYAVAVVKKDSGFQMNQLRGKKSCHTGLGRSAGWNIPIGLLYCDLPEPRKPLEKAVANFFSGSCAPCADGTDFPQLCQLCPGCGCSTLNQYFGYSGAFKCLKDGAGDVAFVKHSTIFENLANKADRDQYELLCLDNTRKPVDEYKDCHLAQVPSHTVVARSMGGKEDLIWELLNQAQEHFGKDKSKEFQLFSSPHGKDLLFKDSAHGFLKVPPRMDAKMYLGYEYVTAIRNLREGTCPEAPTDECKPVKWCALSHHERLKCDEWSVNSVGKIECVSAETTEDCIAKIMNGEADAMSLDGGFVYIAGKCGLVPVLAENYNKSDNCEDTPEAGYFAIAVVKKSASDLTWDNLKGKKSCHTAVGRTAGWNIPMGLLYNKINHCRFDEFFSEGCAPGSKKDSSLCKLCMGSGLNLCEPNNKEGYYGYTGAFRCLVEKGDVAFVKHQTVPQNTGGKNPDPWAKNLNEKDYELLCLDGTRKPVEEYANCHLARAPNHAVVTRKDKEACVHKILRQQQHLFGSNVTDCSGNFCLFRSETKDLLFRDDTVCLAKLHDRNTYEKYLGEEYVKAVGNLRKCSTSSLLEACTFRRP

| Ka [1] [M⁻¹] | Kd [1] [µM] | koff [1] [s⁻¹] | kon [1] [M⁻¹ s⁻¹] | Ka [2] [M⁻¹] | Substance |
| --- | --- | --- | --- | --- | --- |
| 6.57e+07 | 0.0152 | 0.00172 | 113000 | 1e+08 | Carpopeltis flabellata-derived lectin Carnin |
| 7.1e+07 | 0.0141 | 0.000298 | 21200 | – | Hypnea japonica-derived lectin Hypnin A-1 |
| 2.88e+07 | 0.0347 | 0.00564 | 162000 | – | Solieria robusta-derived lectin Solnin B |

| Substance | Ka [1] [M⁻¹] | Kd [1] [µM] | koff [1] [s⁻¹] | kon [1] [M⁻¹ s⁻¹] | Ka [2] [M⁻¹] |
| --- | --- | --- | --- | --- | --- |
| Canavallia ensiformis-derived lectin Con A (from UniProt P02866 30-281) | 1.87e+07 | 0.0534 | 2.49e-05 | 467 | – |
